Our source for the EC50 values is patent publication CN111544600A (UNIV CHINA PHARMA, dated 2020).

This experiment addresses T1, 人DLL4抗原 (human, UniProt Q9NR61 27-524, limits assumed).
T1 construct: Coated at 1 μg/mL; also called Delta like 4
Briefly: ELISA, DLL4 antigen coated on plate, HRP secondary antibody, OD450-OD630. (In an ELISA, binding on a coated surface is turned into a signal by an enzyme label.)

T1 sequence (Q9NR61 27-524 limits assumed): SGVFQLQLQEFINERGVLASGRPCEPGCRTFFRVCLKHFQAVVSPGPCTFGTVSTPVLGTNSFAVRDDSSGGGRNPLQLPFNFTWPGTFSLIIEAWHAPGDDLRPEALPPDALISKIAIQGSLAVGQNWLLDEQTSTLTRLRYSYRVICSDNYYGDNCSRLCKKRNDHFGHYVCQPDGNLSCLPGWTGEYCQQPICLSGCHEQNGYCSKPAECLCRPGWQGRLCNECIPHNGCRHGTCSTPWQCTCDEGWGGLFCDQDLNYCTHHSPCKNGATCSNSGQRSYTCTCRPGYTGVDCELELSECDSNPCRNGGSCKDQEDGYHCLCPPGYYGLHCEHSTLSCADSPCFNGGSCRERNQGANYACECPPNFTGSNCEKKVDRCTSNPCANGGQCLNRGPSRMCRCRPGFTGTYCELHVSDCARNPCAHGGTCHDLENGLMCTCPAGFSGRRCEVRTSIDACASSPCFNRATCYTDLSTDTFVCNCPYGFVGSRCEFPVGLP

B1: 抗人DLL4人源化抗体H3L2 (antibody, V domains shown)
VH: QVQLVQSGAEVKKPGSSVKVSCKASGYTFSGYWMQWIKQAPGQGLEWIGAIYPGDGDTRYTQKFKGRATLTADKSTSTAYMELSSLRSEDTAVYYCAGGNFFFDYWGQGTLVTVSS
VL: EIVITQSPDFQSVTPKEKVTITCSVSSSISSSYLHWYQQKPDQSPKPWIYGTSNLASGVPSRFSGSGSGTDYTLTINSLEAEDAATYYCQQWSSSPLTFGQGTKLEIKV
In the case of B1, the midpoint of the response, the EC50, lay at 49.2 nM.
